Measurements taken from paper PMC12732928, “The Study of Ice-Binding Protein Oligomeric Complexes” (International Journal of Molecular Sciences, 2025).
“And” between values parts separate entries of the source, which are not always exact repeats. Equal entries are not always repeated.

Tests used:
[1] = biological target: the molecule itself; test: MALDI-TOF mass spectrometry; protein at 0.4 mM desalted on a C4 ZipTip, alpha-CHCA matrix, positive linear mode, 8-190 kDa
[2] = biological target: the molecule itself; test: MALDI-TOF mass spectrometry; samples obtained after freezing; otherwise as the other MALDI spectra; high-order forms of low intensity

B1: ice-binding protein P80961 from longhorn sculpin (Myoxocephalus octodecemspinosus) (natural protein)
chain: MKFSLVATIVLLALAQGSFAQGAADLESLGQYFEEMKTKLIQDMTEIIRSQDLANQAQAFVEDKKTQLQPLVAQIQEQMKTVATNVEEQIRPLTANVQAHLQPQIDNFQKQMEAIIKKLTDQTMAIEN
- stoichiometry N [1]: 2 and 3 and 4
- stoichiometry N [2]: 5 and 6 and 7
